The values below come from the DeepSol protein solubility set.

This data set is described as follows: soluble on expression in E. coli; label from the status in PepcDB or PDB records.
With “MINSSEGKSDNKIIEKATQILSKYPLCDSCLGRCFARLGYGLENKERGRAIKISLMLILDEKIKNHEIGDLSSIKRIMENLGPIAEKWYKLYFSSEFHSHPCYLCQNKIEDIKEDFSDKAFKLLSGLGVKSYVLGVELDEETKKKESKIIEEFTLMYYESIKHEIKREVGKTLSKRGYPPNMDNPEVEIVYRLSDLQVFIISKNIRTFYVYNRLNRNLPISSWFSKQGNEGLNTLLQRKIVFAFSEPTTVRILADYPIVIENEGRDKIDVGGYYIFKVMTVGKKELQAISAAKPTMRKYRVTVYSTSSLSDAIRVYGNIYDLYIDAKSFSELNEKLSKLKSQYEIIVLSVDLIDVKGRIKDIIENYLKSFLEHHHHHH”, the “soluble on expression in E. coli” value is reported as “not soluble”.

In the case of “MGSDKIHHHHHHLELPLPPPGEDIVGQVHVIKAKYEDTFADIGTANDLGYLEMIAANPGVDPWLPGAGTEIILPTRFVLPPGPREGIVINLAEYRMYYFPKGESVVYTFPLGIGREGWGSPIANTRITAKTPNPTWTPPASIRKEHAEDGDILPTVVPAGPDNPLGPFKFTLGVPGYLIHGSNKKFGIGMRTSHGCFRMFNNNVLELSKMVPVGTPVRIINEPYKFGISAGKVYLEAHTPLDDQGNPSVVDKHTAVINALLKREDLANNLRMNWDMVRDVVAAEDGMPVEIAVPVENQGAAPMVTSIPPELQ”, the “soluble on expression in E. coli” value is recorded as “not soluble”.

Regarding “MVEYVNQAHEDITGIARDKSIGTNLRDLTFFRQHNALAEQTLAKIFRGDQAKGEVQFSRTDGSRYWLKYIVSQFITDRGNHYALVSGEENSDEHNYKAELEHHHHHH”, the “soluble on expression in E. coli” value is reported as “not soluble”.

On to “MSLALVYSRALSGMNAPLVEVEAHLANGLPHFNIVGLPDMEVKESRDRVRAAIIQSGFEFPAKKITVNLAPADLPKESGRFDLPIAIGILAASGQVAPEKLEEYEFAGELALSGLLRPVRGALAMAWQGMQAKRAFVLPEENAGQAAVMRGITVYGARSLGEVAAHLNGIEPLAQTECQVPQMPFEHGGQPDLCDVKGQHTARLALEIAAAGGHSLLMMGPPGTGKSMLSQRLPGILPPLTEDELVEVWALRSLLPNHQQQLDSNRPFRSPHHSASAAAMVGGGSDPRPGEISLAHHGVLFLDELPEFDRKVLEVLREPLENGEIHISRAARQAVYPAKFQLVAAMNPCPCGYLGHPVKPCRCTPESVARYRSKISGPLLDRIDLTIEVPSLSAAELMQQEAGESSASVLERVIAARDKQYARQGKVNAALSVSELDTSARIQKEAQEALGGLLEKLSLSARSFHRIMRVARTLADLAGDEEVGRSHVMKAIGFRRAL”, for which the “soluble on expression in E. coli” value is listed as “not soluble”.

With “MSMDNHIVIMAGGIGSRFWPMSTPECPKQFIDVMGCGRTLIQLTADRFDGVCPRENVWVVTSEKYIDIVREQLPEIPESNILAEPCARNTAPCIAYACWKIKKKHPNANVVVTPSDALVINTGEFRRVVEKALRFTDNSSAIVTLGIKPTRPETGYGYIAAGDQIMTDKEIFTVDAFKEKPDRETADRYLAEGNYFWNAGIFVWNVRTITSVMRVYAPGIAQIFDRIFPDFYTEKENETIKKLFPTCEAISIDYAVMEKAQEIYVLPASFGWSDLGTWGALRGLLPQDKSGNATVGADVRLYESKNCIVHTSEEKRVVIQGLDGYIIAEKDNTLLICKLDEEQRIKEFSK”, the “soluble on expression in E. coli” value is on record as “not soluble”.

Take “MCIKGCKRRIHPTRLLMLIRTEAPADILVVDQLLKNVFATEAEADLVMALRENGQRTLSLVACDDEGEIVGHVMFSPVTLEGEDLNWQGLAPLAVKEEYRRQGIGAELVKEGLSSLGELGYPACVVLGDPAYYSRFGFEDAARYSLRCAWDVPQGAFQVVALWERELDGRCGVIEYSQEFAAL”: the “soluble on expression in E. coli” value is “not soluble”.

On to “MAPDVFTVVAEPQRRRILERLRAGHASVGELVDQLALPQPTVSKHLRVLRQAGFVTCRTAAQQRIYSLHREPFDEFDAWLQPYRRLWANHLDALGRHLESKETPS”, for which the “soluble on expression in E. coli” value was “not soluble”.

As to “MNRTKGDEEEYWNSSKFKAFTFDDEDDELSQLKESKRAVNSLRDFVDDDDDDDLERVSWSGEPVGSISWSIRETAGNSGSTHEGREQLKSRNSFSSYAQLPKPTSTYSLSSFFRGRTRPGSFQSLSDALSDTPAKSYAPELGRPKGEYRDYSNDWSPSDTVRRLRKGKVCSLERFRSLQDKLQLLEEAVSMHDGNVITAVLIFLKRTLSKEILFRELEVRQVALRHLIHFLKEIGDQKLLLDLFRFLDRTEELALSHYREHLNIQDPDKRKEFLKTCVGLPFSAEDSAHIQDHYTLLERQIIIEANDRHLESAGQTEIFRKHPRKASILNMPLVTTLFYSCFYHYTEAEGTFSSPVNLKKTFKIPDKQYVLTALAARAKLRAWNDVDALFTTKNWLGYTKKRAPIGFHRVVEILHKNNAPVQILQEYVNLVEDVDTKLNLATKFKCHDVVIDTYRDLKDRQQLLAYRSKVDKGSAEEEKIDALLSSSQIRWKN”, the “soluble on expression in E. coli” value was “soluble”.

In the case of “MGSDKIHHHHHHVLKKALRQHFRQSCTEQDLHRWFDPLDITLADEKRLEVRFPHRFFAEWFSTQVQGRFESELNTFMGEGTTVEYTTGCCPVLSSSPLPPAAVSKKLSAPFGREYTFETFISNKRNFFPVASARELARQEEEIRYNPFVLCGPAGSGKTHLLRAIANELSKTVYKKHIFISTIDDLGTLFSNNGSGDPAQVRQQLSACHYLLLDDLHRLREQPQLQDELTVLFNSFYDRQKQMVFTCPGKLSELDFLETGLRSRLEWGLIVTMKPPDLEILVTFIQRQCKLHKLQLAKEHVFTLAQRFRDFRHLQGVLNRLTAYRDLVNRTLADTDFEQVLSHTEAGAGRPLTADRIIALCAGRFSLPPKDVTGDKRHQKVVLARQVAMYLCRELMGSSYPVLGRTFGGKDHSTAMYAVKKIKKMIDSDKTTRQLVTELKKQCLSGAE”, the “soluble on expression in E. coli” value was “not soluble”.

With “MGSDKIHHHHHHMKYTYREAGVDVERGESFAKTIKSAVKLPEWVMKEPTGYASILTITTPPVVVTADGIGTKLILHRKHGTWRYAAEDLVGMNYNDLVCVGARPVAFLDYLGVERISEEHESFIKELVNVLDSVDVKLVGGETAEMPDVYRGDWDAVGFAVGVLEKRIPVDKIKEGDVIVGIPSSGFHSNGWSLIRRIIKEESIKIEELPFELLKGTRIYREVIELFDLVKGIAHVTGGGVVRALKRVLGKLGAHVSLPKRDFVDWILKYVDFNEAVNTFNMGVGMFLIVEKQKVDEVLARVDGTVVGKVSSDWRIEYGGEGG”, the “soluble on expression in E. coli” value is “not soluble”.

In the case of “MGSDKIHHHHHHVMARIHNRDWCLACTSSLKELPRHVYFRAYSLKGGTCVQGHEHVWWQFLFARNGLMQVQAGATTLTLPPDYGVWIPPGCVHTLWIGEEVELESLYIEPTAVAIQDQEPRVVMVDEFVRAFIHHGCTSIPVKYDEDGADGRKVKVLLDSLQSLPDAPFNLPFPTEPRLLEVCLTIQSAPHLAHTLDESAGLARMSSRTFTRHFLRATGLPYHTWRQRMRLLGSLEMLRSDITVTEVALTIGYSTPSAFTHAFKQLFGKSPSRFTRPEPK”, the “soluble on expression in E. coli” value was “not soluble”.

As for “GWNECNDKLRDISRSFWRGDQGYLKEFATRLMGSRDIYSAANWPYKLTVNYITYHDGFTLQDLVSYKHKHNEANGEENRDGHGDNRSENYGVEGETENIMIIATREKQKRNLIASLLFAFGIPHILTADVLSHSQDGNNNAYCQDNKTSWINWSETERKAHFKTWMAQMVANRHQYMVPFIRAFSGENRNNNRIFWRRTDGRLMEHDDWNRLSSVALHLGIGKDGQELVYLINQTNATARFKLPNERNQEWVTICDTNVRNLNPGHAEGEVLLSPTSMVILHYQPKPNSPQGEQLQS”, the “soluble on expression in E. coli” value is listed as “not soluble”.

Take “SGSELIGRLAPRLGLAEPDMLRKAEEYLRLSRVKCVGLSARTTETSSAVMCLDLAASWMKCPLDRAYLIKLSGLNKETYQSCLKSFECLLGLNSNIGIRDLAVQFSCIEAVNMASKILKSYESSLPQTQQVDLDLSRPLFTSAALLSACKILKLKVDKNKMVATSGVKKAIFDRLCKQLEKIGQQVDREPGDVATPPRKRKKIVVEAPAKEMEKVEEMPHKPQKDEDLTQDYEEWKRKILENAASAQKATAE”: the “soluble on expression in E. coli” value is “soluble”.

On to “MLTPMFCLAHISDMHLSPLPKPSFFELFGKRLTGYLNWQKKRKGQMATNTLETLIEALKKKNPDHLVISGDLVNLALDKEFEQARNWLLNQGQPQNISLTFGNHDAYVRGAFQKACTLFQPWITGDFPQKNAPPFPYIRIRKNVAIIGASSAIATPPFQASGYFGKMQAQALSQLLNEAARRNLFRVIMIHHPPFHHATSWHKKLWGIERFLEVIKHHGCELILHGHTHLPTLNIIKGKMGKIPIVGVASAAQAFGDTPPPAGFNFFSIEQFNQQWHCQLQRYSLINQNNEVACTETIDLLEHHHHHH”, for which the “soluble on expression in E. coli” value is given as “not soluble”.

Turning to “MSLLLIGNGRLITRDAQNHFFENGCVAIDGQVVKQVGTTEELKQAYPEATFIDAKGGVIMPGFINMHNHIYSTFARGLSLTNYHPKNFMDILVDQWWRIDRALTLEDTYQSGKVAYLDSIRNGVTTVFDHHASYGEITGSLTQLSNAADELGIRTCLCYEVSDRDGEQKMREAVQENAAFIKASSLRNDDMQKAMMGMHAAFTLSDASLELCAANTPDGIGYHIHIAEDLADVHDSLKKYGKPIVNRLFDLGILGKQTMAGHCIHIGPHEMELLRDTDTMVVTNPESNMGNAVGCPPAMRMFNEYGILMGLGTDGYTNDVTESYKVGNVIHKHHLADPNAAWAEIPTMLFDNNPQMANRYFKTKLGVLEPNAAADVIIVDYHGPTPMTKENYNMHILFGMNGGMVTDTVINGEIRMRNREVQGIDEEKVWHDAQTQAQSFWKRVNQEGHHHHHH”, the “soluble on expression in E. coli” value is “soluble”.

On to “QLHELANTFGQDLQRRYGEKVHKLTLHGGFSCPNRDGTIGKGGCTFCNVASFADEQEQFKSIHDQLTDRAGEVQRAKKYLAYFQAYTSTFAEVQVLKNMYEEALKAANIVGLCVGTRPDCVPDAVLDLLKGYVDDGYEVWLELGLQTANDKTLKRINRGHDFACYDAITRKARSLGIKVCTHLIIGLPGDTRDDNRQTLDKVLATGTDGIKLHPLHIVEGSTLAKAWRAGKLDAPEMDEYVDIACELIRLTPPEVVYHRVSATARQPTLLSPLWCEPRWLGLTNVGMALNNSGPQGS”, for which the “soluble on expression in E. coli” value is “not soluble”.

As for “MAVAYSIGIDSGSTATKGILLADGVITRRFLVPTPFRPATAITEAWETLREGLETTPFLTLTGYGRQLVDFADKQVTEISCHGLGARFLAPATRAVIDIGGQDSKVIQLDDDGNLCDFLMNDKCAAGTGRFLEVISRTLGTSVEQLDSITENVTPHAITSMCTVFAESEAISLRSAGVAPEAILAGVINAMARRSANFIARLSCEAPILFTGGVSHCQKFARMLESHLRMPVNTHPDAQFAGAIGAAVIGQRVRTRR”, the “soluble on expression in E. coli” value is on record as “soluble”.

“MSLSMLEKVSFSTTPDFELGFEHCPRQTDYLIAQPKERAKGLVVYIPGFGDDAGEYREKFCLKVAEKYDLAAMTVDYHCFYSRPEVHSATAYEAEDVALIEKLFLAHNLPFAGDTIEEGIEILNKHLASHNQKASITATLIPGKDEYQNAGVLQALDIINAVGHAIEKYSIPAENVILIGSSYGGYIANLATKFAPKTFRAVFDNSSWAQPHFTYIVGREYGYPELIHKTHSHIATKLFLRTAWTLKKGLPNTFDGKRFYVRTFSEDQLGQFSSYEPETYYYFIHAEKDKLALTEHKIQMATYMIQREMNVHMEVMEAADIDGQYIKTIEHGMNLSMLTFFDKAYAHINDHTISLENDFMNGSLVGYDSGDHRYEFDFSTFPVTGRVTQKAVAEGHHHHHH”: the “soluble on expression in E. coli” value is on record as “soluble”.

Consider “MENNNGFADMADYLGKLSQVDATKLSIESLTAAANFYMEKLLPNIPKSLLKKKHMVDQVKVNIKDNEVQVAFEDTAFYWRFAENGTVNQKAQHFASGTFEQNKDQIEKIMTQQILDLWKG”, for which the “soluble on expression in E. coli” value is recorded as “soluble”.
